Laboratory results taken from patent US20170269069.

Key:
[1] = tested on: H3 peptide (aa10-35) K18ac
[2] = tested on: nucleosome arrays containing the rH3 K18 acetyl-lysine analogue
[3] = tested on: nucleosome arrays containing unmodified rH3
[4] = tested on: rH3 K18 acetyl-lysine analogue
[5] = tested on: rH3 K27 dimethyl-lysine analogue
[6] = tested on: rH3 K27 monomethyl-lysine analogue
[7] = tested on: rH3 K27 trimethyl-lysine analogue
[8] = tested on: rH3 K36 dimethyl-lysine analogue
[9] = tested on: rH3 K36 monomethyl-lysine analogue
[10] = tested on: rH3 K36 trimethyl-lysine analogue
[11] = tested on: rH3 K4 dimethyl-lysine analogue
[12] = tested on: rH3 K4 monomethyl-lysine analogue
[13] = tested on: rH3 K4 trimethyl-lysine analogue
[14] = tested on: rH3 K9 dimethyl-lysine analogue
[15] = tested on: rH3 K9 monomethyl-lysine analogue
[16] = tested on: rH3 K9 trimethyl-lysine analogue
[17] = tested on: recombinant histone H3, wild type
[18] = tested on: reconstituted native nucleosome arrays (modified native histones purified from HeLa cells)

Chain of recombinant MMP-9 (aa115-730) (chain, as listed by the source): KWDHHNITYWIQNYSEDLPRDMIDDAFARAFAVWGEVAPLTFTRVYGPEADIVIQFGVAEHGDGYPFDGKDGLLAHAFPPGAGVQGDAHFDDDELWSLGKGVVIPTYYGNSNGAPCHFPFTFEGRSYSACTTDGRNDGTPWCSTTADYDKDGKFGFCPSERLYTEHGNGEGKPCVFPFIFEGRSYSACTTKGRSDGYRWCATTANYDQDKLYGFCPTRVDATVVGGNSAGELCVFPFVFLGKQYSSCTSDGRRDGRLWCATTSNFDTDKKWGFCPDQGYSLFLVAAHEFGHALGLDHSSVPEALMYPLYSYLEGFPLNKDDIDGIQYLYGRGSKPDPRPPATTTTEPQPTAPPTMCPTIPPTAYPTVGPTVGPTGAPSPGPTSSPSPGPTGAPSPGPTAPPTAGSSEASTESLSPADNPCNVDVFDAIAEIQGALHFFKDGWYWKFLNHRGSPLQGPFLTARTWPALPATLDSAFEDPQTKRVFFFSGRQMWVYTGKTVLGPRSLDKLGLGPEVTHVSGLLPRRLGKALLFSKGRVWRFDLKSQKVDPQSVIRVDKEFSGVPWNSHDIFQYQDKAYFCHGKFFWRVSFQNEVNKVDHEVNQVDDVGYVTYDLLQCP

Row | Substance | cleaved H3 (peptide hydrolysis measured with fluorescamine; kinetic analysis), against unmodified H3 or H3K27me1 peptides [1] | H3NT cleavage (in vitro H3NT cleavage assay) [2] | rMMP-9 protease activity (in vitro H3NT cleavage assay) [3] | H3NT proteolysis (in vitro H3NT cleavage assay) [4] | MMP-9 activity (in vitro H3NT cleavage assay) [5] | MMP-9 activity (in vitro H3NT cleavage assay) [6] | MMP-9 activity (in vitro H3NT cleavage assay) [7] | MMP-9 activity (in vitro H3NT cleavage assay) [8] | MMP-9 activity (in vitro H3NT cleavage assay) [9] | MMP-9 activity (in vitro H3NT cleavage assay) [10] | MMP-9 activity (in vitro H3NT cleavage assay) [11] | MMP-9 activity (in vitro H3NT cleavage assay) [12] | MMP-9 activity (in vitro H3NT cleavage assay) [13] | MMP-9 activity (in vitro H3NT cleavage assay) [14] | MMP-9 activity (in vitro H3NT cleavage assay) [15] | MMP-9 activity (in vitro H3NT cleavage assay) [16] | H3NT protease activity (in vitro H3NT cleavage assay, Western blot with the H3CT antibody) [17] | rMMP-9 protease activity (in vitro H3NT cleavage assay) [18]
1 | recombinant MMP-9 (aa115-730) | 3-fold increase of cleaved H3 compared to unmodified H3 or H3K27me1 peptides | the specific acetylation of H3K18 was both necessary and sufficient for H3NT cleavage by rMMP-9 in a nucleosome array context | completely resistant to rMMP-9 protease activity | the specific acetylation of K18 robustly increased H3NT proteolysis by rMMP-9 | nearly identical to rH3 control in all cases | nearly identical to rH3 control in all cases | nearly identical to rH3 control in all cases | nearly identical to rH3 control in all cases | nearly identical to rH3 control in all cases | nearly identical to rH3 control in all cases | nearly identical to rH3 control in all cases | nearly identical to rH3 control in all cases | nearly identical to rH3 control in all cases | nearly identical to rH3 control in all cases | nearly identical to rH3 control in all cases | nearly identical to rH3 control in all cases | only rMMP-9 possessed H3NT protease activity | rMMP-9 displayed robust activity for modified native nucleosome arrays
2 | recombinant USP14 |  |  |  |  |  |  |  |  |  |  |  |  |  |  |  |  | only rMMP-9 possessed H3NT protease activity | 
